We go through four molecules from US20040175375A1 (SEOUL NATIONAL UNIVERSITY INDUSTRY FOUNDATION, published 2004).

In one series the target is T1, HA-FBP (human, UniProt Q96AE4 1-644).
T1 construct: also called HA-tagged FBP; FBP expression plasmid product; not shown: HA tag from HA-tagged pcDNA3 (Invitrogen)
T1 sequence (looked up): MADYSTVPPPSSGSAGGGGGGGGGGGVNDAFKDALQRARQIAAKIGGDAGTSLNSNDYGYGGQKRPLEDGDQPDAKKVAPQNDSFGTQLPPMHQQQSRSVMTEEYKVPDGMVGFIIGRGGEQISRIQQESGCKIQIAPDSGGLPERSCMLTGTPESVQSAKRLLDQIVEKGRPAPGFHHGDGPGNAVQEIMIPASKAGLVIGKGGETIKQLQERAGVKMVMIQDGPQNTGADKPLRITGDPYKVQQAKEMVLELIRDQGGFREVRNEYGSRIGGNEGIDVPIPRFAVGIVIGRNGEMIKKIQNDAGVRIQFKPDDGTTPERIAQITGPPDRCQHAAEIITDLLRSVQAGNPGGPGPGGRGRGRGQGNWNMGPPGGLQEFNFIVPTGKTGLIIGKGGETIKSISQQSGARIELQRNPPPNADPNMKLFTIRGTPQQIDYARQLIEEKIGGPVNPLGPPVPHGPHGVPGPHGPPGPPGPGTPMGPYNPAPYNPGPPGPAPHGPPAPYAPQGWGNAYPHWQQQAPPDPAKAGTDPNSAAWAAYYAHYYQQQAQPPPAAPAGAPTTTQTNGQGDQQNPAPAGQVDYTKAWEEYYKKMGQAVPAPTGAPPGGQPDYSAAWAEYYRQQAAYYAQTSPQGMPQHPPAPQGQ
In words: co-immunoprecipitation with anti-myc from 293 cells, western blot. How it is done:
The transfected cells were lysed with the RIPA buffer for 16 hours after the transfection. […] After a protein A-agarose bead had been added to the above reactant, the mixture was incubated further for 1 hour at 4° C. The bead was washed with lysis buffer four times. The precipitated proteins were analyzed by SDS-PAGE and then transferred onto nitrocellulose membranes.
On the technique in general: In western blotting, separated proteins are transferred to a membrane and probed.

The target in series [1] is T2, myc-(p38/JTV-1), amino acids 1-312 (full length).
T2 chain: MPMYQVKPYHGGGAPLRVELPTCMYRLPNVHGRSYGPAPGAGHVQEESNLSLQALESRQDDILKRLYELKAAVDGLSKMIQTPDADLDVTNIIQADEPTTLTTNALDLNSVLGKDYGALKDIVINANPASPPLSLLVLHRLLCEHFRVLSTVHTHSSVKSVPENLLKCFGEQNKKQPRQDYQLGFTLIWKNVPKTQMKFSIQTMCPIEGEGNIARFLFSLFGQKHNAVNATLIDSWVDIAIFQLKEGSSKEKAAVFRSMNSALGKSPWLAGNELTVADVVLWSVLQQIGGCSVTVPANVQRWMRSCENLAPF

In series [2] the target is T3, B42-YRS (tyrosyl-tRNA synthetase) (UniProt P54577 1-528).
T3 construct: Yeast two-hybrid prey; also called tyrosyl-YRS; pB42-YRS; not shown: B42 protein from pB42 vector (Invitrogen)
T3 sequence (looked up): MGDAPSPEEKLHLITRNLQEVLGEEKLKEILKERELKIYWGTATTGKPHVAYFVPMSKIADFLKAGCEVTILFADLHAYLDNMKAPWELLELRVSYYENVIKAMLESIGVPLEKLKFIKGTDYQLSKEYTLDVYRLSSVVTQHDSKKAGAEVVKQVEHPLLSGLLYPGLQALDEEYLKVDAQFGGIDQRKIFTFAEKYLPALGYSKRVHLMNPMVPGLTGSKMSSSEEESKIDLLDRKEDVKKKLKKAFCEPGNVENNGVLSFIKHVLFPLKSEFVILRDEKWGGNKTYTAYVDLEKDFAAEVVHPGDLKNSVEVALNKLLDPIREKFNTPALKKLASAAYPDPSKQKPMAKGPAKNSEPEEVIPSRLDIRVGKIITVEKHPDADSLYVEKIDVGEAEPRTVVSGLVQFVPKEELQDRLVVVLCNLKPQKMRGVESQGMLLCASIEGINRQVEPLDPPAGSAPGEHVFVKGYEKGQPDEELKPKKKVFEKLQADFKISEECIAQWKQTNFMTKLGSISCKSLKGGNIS
In words: yeast two-hybrid (LexA system), blue colony on X-gal. An excerpt:
(§1) Using the recombinant plasmids constructed in the above, Saccaromyces cerevisiae EGY48 (Clontech laboratories Inc. Estojak et al. (1995)) having a lacZ plasmid (p8op-LacZ) as a probe gene was transformed according to the known methods (Golemis, E. A., et al., In Current Protocols in Molecular Biology, 1994).

A further series has as its target T4, B42-(p38/JTV-1) (human, UniProt Q13155 1-312).
T4 construct: Yeast two-hybrid prey; also called pB42-(p38/JTV-1); not shown: B42 protein from pB42 vector (Invitrogen)
T4 sequence: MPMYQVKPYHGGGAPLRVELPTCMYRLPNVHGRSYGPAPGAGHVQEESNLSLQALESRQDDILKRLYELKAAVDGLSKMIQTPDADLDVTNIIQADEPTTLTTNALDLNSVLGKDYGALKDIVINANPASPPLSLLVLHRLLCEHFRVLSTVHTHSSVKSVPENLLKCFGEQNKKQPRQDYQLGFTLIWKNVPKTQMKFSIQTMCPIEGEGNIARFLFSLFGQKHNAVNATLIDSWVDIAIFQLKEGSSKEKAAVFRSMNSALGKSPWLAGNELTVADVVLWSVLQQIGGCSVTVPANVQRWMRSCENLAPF
The description is as above.
Source text: as §1

The target of series [3] is T5, B42-QRS (glutaminyl-tRNA synthetase) (UniProt P47897 1-775).
T5 construct: Yeast two-hybrid prey; also called pB42-QRS; not shown: B42 protein from pB42 vector (Invitrogen)
T5 sequence (looked up): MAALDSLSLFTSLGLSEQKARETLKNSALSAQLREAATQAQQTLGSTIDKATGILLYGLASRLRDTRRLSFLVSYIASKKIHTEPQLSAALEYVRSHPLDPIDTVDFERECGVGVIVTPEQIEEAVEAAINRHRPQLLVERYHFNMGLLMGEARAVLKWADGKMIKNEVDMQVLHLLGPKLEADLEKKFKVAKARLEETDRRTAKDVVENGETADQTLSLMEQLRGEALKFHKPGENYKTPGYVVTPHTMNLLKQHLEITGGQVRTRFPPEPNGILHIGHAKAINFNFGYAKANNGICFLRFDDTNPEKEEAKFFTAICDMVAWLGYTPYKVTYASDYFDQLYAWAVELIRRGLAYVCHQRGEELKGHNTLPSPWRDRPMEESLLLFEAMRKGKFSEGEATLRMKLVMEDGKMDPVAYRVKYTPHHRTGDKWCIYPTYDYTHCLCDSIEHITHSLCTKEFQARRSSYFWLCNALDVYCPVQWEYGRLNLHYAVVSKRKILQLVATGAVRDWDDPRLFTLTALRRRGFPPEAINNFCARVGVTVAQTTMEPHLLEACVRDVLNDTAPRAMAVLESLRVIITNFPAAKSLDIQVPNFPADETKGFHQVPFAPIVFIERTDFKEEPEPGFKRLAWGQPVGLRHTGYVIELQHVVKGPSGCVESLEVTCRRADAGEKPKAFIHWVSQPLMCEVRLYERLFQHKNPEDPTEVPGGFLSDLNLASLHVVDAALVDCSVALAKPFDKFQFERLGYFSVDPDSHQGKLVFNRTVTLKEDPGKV
The series is described as above.
Source text: as §1

For series [4], the target named is T6, B42-WRS (tryptophanyl-tRNA synthetase) (UniProt P23381 1-471).
T6 construct: Yeast two-hybrid prey; also called tryptophanyl-WRS; pB42-WRS; not shown: B42 protein from pB42 vector (Invitrogen)
T6 sequence (looked up): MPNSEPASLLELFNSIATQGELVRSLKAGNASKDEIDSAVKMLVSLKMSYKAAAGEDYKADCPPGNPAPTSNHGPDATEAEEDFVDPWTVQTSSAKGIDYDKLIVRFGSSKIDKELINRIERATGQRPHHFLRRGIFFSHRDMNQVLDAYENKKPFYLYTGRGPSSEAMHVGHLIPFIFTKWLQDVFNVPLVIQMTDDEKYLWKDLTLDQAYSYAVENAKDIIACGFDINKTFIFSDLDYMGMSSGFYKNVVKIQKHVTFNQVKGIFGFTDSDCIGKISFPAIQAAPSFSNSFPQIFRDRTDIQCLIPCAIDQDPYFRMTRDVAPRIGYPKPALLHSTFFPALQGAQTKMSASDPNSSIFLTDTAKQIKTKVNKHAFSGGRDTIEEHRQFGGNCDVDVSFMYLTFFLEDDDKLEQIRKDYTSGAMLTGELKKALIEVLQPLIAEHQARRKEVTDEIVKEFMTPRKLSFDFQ
The description is as above.
Source text: as §1

In series [5] the target is T7, PDK-1 (phosphoinositide-dependent kinase) (UniProt O15530 1-556, limits assumed).
T7 construct: Endogenous protein of the cell lysate
T7 sequence (looked up): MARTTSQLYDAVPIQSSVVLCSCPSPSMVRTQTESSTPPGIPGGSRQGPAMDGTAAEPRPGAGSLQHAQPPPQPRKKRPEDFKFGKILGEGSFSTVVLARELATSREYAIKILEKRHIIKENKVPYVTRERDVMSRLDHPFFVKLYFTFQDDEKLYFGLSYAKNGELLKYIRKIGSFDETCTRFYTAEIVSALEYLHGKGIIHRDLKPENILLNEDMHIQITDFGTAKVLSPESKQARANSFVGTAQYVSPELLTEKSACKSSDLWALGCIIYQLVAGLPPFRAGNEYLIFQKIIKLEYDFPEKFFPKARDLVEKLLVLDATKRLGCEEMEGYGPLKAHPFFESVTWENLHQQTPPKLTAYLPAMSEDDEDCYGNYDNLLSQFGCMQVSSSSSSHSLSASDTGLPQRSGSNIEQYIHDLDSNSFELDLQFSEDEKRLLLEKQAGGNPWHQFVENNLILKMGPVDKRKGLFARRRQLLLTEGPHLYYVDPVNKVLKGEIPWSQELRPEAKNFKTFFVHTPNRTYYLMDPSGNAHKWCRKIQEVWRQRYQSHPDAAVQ
In words: anti PDK-1 immunoprecipitation from HCT116 cells treated with FasL or TNF, western blot with p38/JTV-1 antibody.

B1: myc-tagged p38/JTV-1 deletion fragment, amino acids 162-312 (other)
chain: PENLLKCFGEQNKKQPRQDYQLGFTLIWKNVPKTQMKFSIQTMCPIEGEGNIARFLFSLFGQKHNAVNATLIDSWVDIAIFQLKEGSSKEKAAVFRSMNSALGKSPWLAGNELTVADVVLWSVLQQIGGCSVTVPANVQRWMRSCENLAPF
notes: not shown: myc tag from myc-tagged pcDNA3 (Invitrogen)
On to B1, for which the binding result with HA-FBP is “no binding”.

B2: PDK-1 (phosphoinositide-dependent kinase) (protein)
chain: MARTTSQLYDAVPIQSSVVLCSCPSPSMVRTQTESSTPPGIPGGSRQGPAMDGTAAEPRPGAGSLQHAQPPPQPRKKRPEDFKFGKILGEGSFSTVVLARELATSREYAIKILEKRHIIKENKVPYVTRERDVMSRLDHPFFVKLYFTFQDDEKLYFGLSYAKNGELLKYIRKIGSFDETCTRFYTAEIVSALEYLHGKGIIHRDLKPENILLNEDMHIQITDFGTAKVLSPESKQARANSFVGTAQYVSPELLTEKSACKSSDLWALGCIIYQLVAGLPPFRAGNEYLIFQKIIKLEYDFPEKFFPKARDLVEKLLVLDATKRLGCEEMEGYGPLKAHPFFESVTWENLHQQTPPKLTAYLPAMSEDDEDCYGNYDNLLSQFGCMQVSSSSSSHSLSASDTGLPQRSGSNIEQYIHDLDSNSFELDLQFSEDEKRLLLEKQAGGNPWHQFVENNLILKMGPVDKRKGLFARRRQLLLTEGPHLYYVDPVNKVLKGEIPWSQELRPEAKNFKTFFVHTPNRTYYLMDPSGNAHKWCRKIQEVWRQRYQSHPDAAVQ
Consider B2, for which, in series [1], the “expression level of the phosphorylated AKT (p-308 and p-473)” value is “when the expression level of p38/JTV-1 was increased, the expression level of the phosphorylated AKT (p-308 and p-473) was decreased”.

B3: LexA-(p38/JTV-1) (other)
chain: MPMYQVKPYHGGGAPLRVELPTCMYRLPNVHGRSYGPAPGAGHVQEESNLSLQALESRQDDILKRLYELKAAVDGLSKMIQTPDADLDVTNIIQADEPTTLTTNALDLNSVLGKDYGALKDIVINANPASPPLSLLVLHRLLCEHFRVLSTVHTHSSVKSVPENLLKCFGEQNKKQPRQDYQLGFTLIWKNVPKTQMKFSIQTMCPIEGEGNIARFLFSLFGQKHNAVNATLIDSWVDIAIFQLKEGSSKEKAAVFRSMNSALGKSPWLAGNELTVADVVLWSVLQQIGGCSVTVPANVQRWMRSCENLAPF
notes: Yeast two-hybrid bait expressed in S. cerevisiae EGY48; also called fusion protein of p38/JTV-1 and LexA; pLexA-(p38/JTV-1); not shown: LexA protein encoded by pLex202 vector (Invitrogen)
Take B3: the binding result is reported as “no binding” in series [2], “binds” with B42-(p38/JTV-1), “no binding” in series [3] and “no binding” in series [4].

B4: myc-(p38/JTV-1), amino acids 1-312 (full length) (other)
chain: MPMYQVKPYHGGGAPLRVELPTCMYRLPNVHGRSYGPAPGAGHVQEESNLSLQALESRQDDILKRLYELKAAVDGLSKMIQTPDADLDVTNIIQADEPTTLTTNALDLNSVLGKDYGALKDIVINANPASPPLSLLVLHRLLCEHFRVLSTVHTHSSVKSVPENLLKCFGEQNKKQPRQDYQLGFTLIWKNVPKTQMKFSIQTMCPIEGEGNIARFLFSLFGQKHNAVNATLIDSWVDIAIFQLKEGSSKEKAAVFRSMNSALGKSPWLAGNELTVADVVLWSVLQQIGGCSVTVPANVQRWMRSCENLAPF
notes: also called myc-tagged p38/JTV-1; p38/JTV-1 expression plasmid product; not shown: myc tag from myc-tagged pcDNA3 (Invitrogen)
For B4, the binding result in series [5] is listed as “binds”.
